Results on three substances are retold here after paper doi:10.1101/2021.09.16.460654.

For the experiment, the target named is S. aureus FakA (S. aureus).

“S. aureus wild-type FakB1 (from UniProt X5EH37 1-288) (natural protein)”: the apparent KM for FakB1 in the FA kinase assay (0.2 µM FakA, [14C]16:0) was 0.13 µM.
With “FakB1(A158L) (from UniProt X5EH37 1-288) (natural protein)”, the apparent KM for FakB1(A158L) in the FA kinase assay (0.2 µM FakA, [14C]16:0) amounted to 0.13 µM.
“FakB1(A121I) (from UniProt X5EH37 1-288) (natural protein)”: the apparent KM for FakB1(A121I) in the FA kinase assay (0.2 µM FakA, [14C]16:0) was 0.1 µM.
